# Measurements as given in patent US20060263802A1 (CRUCELL HOLLAND B V, published 2006).
# B1: human monoclonal antibody CRJB (antibody, V domains shown)
# VH: QITLKETGPTLVKPTQTLTLTCTFSGFSLSTSGVGVGWIRQPPGKALEWVTLIYWDDDKRYSPSLENRVTIRKDTSKNQVALTMTNMDPLDTGTYYCAHRQHISSFPWFDSWGQGTLVTVSS
# VL: SYVLTQPPSVSVAPGKTARINCGGNNIEYRSVHWYQQKSGQAPVAVIYDNSDRPSGIPERFSGSKSGNTATLTISRVEAGDEADYYCQVWDISSDVVFGGGTKLTVLG
# Experiments:
# Test in all cases: PEPSCAN ELISA, looped peptide, antibody 10 µg/ml
# [1] = target: looped/cyclic peptide … (rabies virus strain ERA)
# [2] = target: looped/cyclic peptide … (rabies virus strain ERA); remark: listed apart in the source
# [3] = target: looped/cyclic peptide … (rabies virus strain ERA); remark: listed apart in the source
# [4] = target: looped/cyclic peptide … (rabies virus strain ERA); remark: listed apart in the source
# [5] = target: looped/cyclic peptide … (rabies virus strain ERA); remark: listed apart in the source
# [6] = target: looped/cyclic peptide … (rabies virus strain ERA); remark: listed apart in the source
# [7] = target: looped/cyclic peptide … (rabies virus strain ERA); remark: listed apart in the source
# [8] = target: looped/cyclic peptide … (rabies virus strain ERA); remark: listed apart in the source
# [9] = target: looped/cyclic peptide … (rabies virus strain ERA); remark: listed apart in the source
# [10] = target: looped/cyclic peptide … (rabies virus strain ERA); remark: listed apart in the source
# [11] = target: looped/cyclic peptide … (rabies virus strain ERA); remark: listed apart in the source
# [12] = target: looped/cyclic peptide … (rabies virus strain ERA); remark: listed apart in the source
# [13] = target: looped/cyclic peptide … (rabies virus strain ERA); remark: listed apart in the source
# [14] = target: looped/cyclic peptide … (rabies virus strain ERA); remark: listed apart in the source
# [15] = target: looped/cyclic peptide … (rabies virus strain ERA); remark: listed apart in the source
# [16] = target: looped/cyclic peptide … (rabies virus strain ERA); remark: listed apart in the source
# [17] = target: looped/cyclic peptide … (rabies virus strain ERA); remark: listed apart in the source
# [18] = target: looped/cyclic peptide … (rabies virus strain ERA); remark: listed apart in the source
# [19] = target: looped/cyclic peptide … (rabies virus strain ERA); remark: listed apart in the source
# [20] = target: looped/cyclic peptide … (rabies virus strain ERA); remark: listed apart in the source
# [21] = target: looped/cyclic peptide … (rabies virus strain ERA); remark: listed apart in the source
# [22] = target: looped/cyclic peptide … (rabies virus strain ERA); remark: listed apart in the source
# [23] = target: looped/cyclic peptide … (rabies virus strain ERA); remark: listed apart in the source
# [24] = target: looped/cyclic peptide … (rabies virus strain ERA); remark: listed apart in the source
# [25] = target: looped/cyclic peptide … (rabies virus strain ERA); remark: listed apart in the source
# [26] = target: looped/cyclic peptide … (rabies virus strain ERA); remark: listed apart in the source
# [27] = target: looped/cyclic peptide … (rabies virus strain ERA); remark: listed apart in the source
# [28] = target: looped/cyclic peptide … (rabies virus strain ERA); remark: listed apart in the source
# [29] = target: looped/cyclic peptide … (rabies virus strain ERA); remark: listed apart in the source
# [30] = target: looped/cyclic peptide … (rabies virus strain ERA); remark: listed apart in the source
# [31] = target: looped/cyclic peptide … (rabies virus strain ERA); remark: listed apart in the source
# [32] = target: looped/cyclic peptide … (rabies virus strain ERA); remark: listed apart in the source
# [33] = target: looped/cyclic peptide … (rabies virus strain ERA); remark: listed apart in the source
# [34] = target: looped/cyclic peptide … (rabies virus strain ERA); remark: listed apart in the source
# [35] = target: looped/cyclic peptide … (rabies virus strain ERA); remark: listed apart in the source
# [36] = target: looped/cyclic peptide … (rabies virus strain ERA); remark: listed apart in the source
# [37] = target: looped/cyclic peptide … (rabies virus strain ERA); remark: listed apart in the source
# [38] = target: looped/cyclic peptide … (rabies virus strain ERA); remark: listed apart in the source
# [39] = target: looped/cyclic peptide … (rabies virus strain ERA); remark: listed apart in the source
# [40] = target: looped/cyclic peptide … (rabies virus strain ERA); remark: listed apart in the source
# [41] = target: looped/cyclic peptide … (rabies virus strain ERA); remark: listed apart in the source
# [42] = target: looped/cyclic peptide … (rabies virus strain ERA); remark: listed apart in the source
# [43] = target: looped/cyclic peptide … (rabies virus strain ERA); remark: listed apart in the source
# [44] = target: looped/cyclic peptide … (rabies virus strain ERA); remark: listed apart in the source
# [45] = target: looped/cyclic peptide … (rabies virus strain ERA); remark: listed apart in the source
# [46] = target: looped/cyclic peptide … (rabies virus strain ERA); remark: listed apart in the source
# [47] = target: looped/cyclic peptide … (rabies virus strain ERA); remark: listed apart in the source
# [48] = target: looped/cyclic peptide … (rabies virus strain ERA); remark: listed apart in the source
# [49] = target: looped/cyclic peptide … (rabies virus strain ERA); remark: listed apart in the source
# [50] = target: looped/cyclic peptide … (rabies virus strain ERA); remark: listed apart in the source
# [51] = target: looped/cyclic peptide … (rabies virus strain ERA); remark: listed apart in the source
# [52] = target: looped/cyclic peptide … (rabies virus strain ERA); remark: listed apart in the source
# [53] = target: looped/cyclic peptide […] (rabies virus strain ERA)
# [54] = target: looped/cyclic peptide … (rabies virus strain ERA); remark: listed apart in the source
# [55] = target: looped/cyclic peptide … (rabies virus strain ERA); remark: listed apart in the source
# [56] = target: looped/cyclic peptide … (rabies virus strain ERA); remark: listed apart in the source
# [57] = target: looped/cyclic peptide … (rabies virus strain ERA); remark: listed apart in the source
# [58] = target: looped/cyclic peptide … (rabies virus strain ERA); remark: listed apart in the source
# [59] = target: looped/cyclic peptide … (rabies virus strain ERA); remark: listed apart in the source
# [60] = target: looped/cyclic peptide … (rabies virus strain ERA); remark: listed apart in the source
# [61] = target: looped/cyclic peptide … (rabies virus strain ERA); remark: listed apart in the source
# [62] = target: looped/cyclic peptide … (rabies virus strain ERA); remark: listed apart in the source
# [63] = target: looped/cyclic peptide … (rabies virus strain ERA); remark: listed apart in the source
# [64] = target: looped/cyclic peptide … (rabies virus strain ERA); remark: listed apart in the source
# [65] = target: looped/cyclic peptide … (rabies virus strain ERA); remark: listed apart in the source
# [66] = target: looped/cyclic peptide … (rabies virus strain ERA); remark: listed apart in the source
# [67] = target: looped/cyclic peptide … (rabies virus strain ERA); remark: listed apart in the source
# [68] = target: looped/cyclic peptide … (rabies virus strain ERA); remark: listed apart in the source
# [69] = target: looped/cyclic peptide … (rabies virus strain ERA); remark: listed apart in the source
# [70] = target: looped/cyclic peptide … (rabies virus strain ERA); remark: listed apart in the source
# [71] = target: looped/cyclic peptide … (rabies virus strain ERA); remark: listed apart in the source
# [72] = target: looped/cyclic peptide … (rabies virus strain ERA); remark: listed apart in the source
# [73] = target: looped/cyclic peptide … (rabies virus strain ERA); remark: listed apart in the source
# [74] = target: looped/cyclic peptide … (rabies virus strain ERA); remark: listed apart in the source
# [75] = target: looped/cyclic peptide … (rabies virus strain ERA); remark: listed apart in the source
binder,measurement,setting,value
B1,OD value,[1],82 OD
same,OD value,[2],66 OD
same,OD value,[3],78 OD
same,OD value,[4],68 OD
same,OD value,[5],60 OD
same,OD value,[6],73 OD
same,OD value,[7],55 OD
same,OD value,[8],96 OD
same,OD value,[9],107 OD
same,OD value,[10],64 OD
same,OD value,[11],83 OD
same,OD value,[12],74 OD
same,OD value,[13],83 OD
same,OD value,[14],57 OD
same,OD value,[15],72 OD
same,OD value,[16],92 OD
same,OD value,[17],83 OD
same,OD value,[18],93 OD
same,OD value,[19],83 OD
same,OD value,[20],74 OD
same,OD value,[21],63 OD
same,OD value,[22],64 OD
same,OD value,[23],86 OD
same,OD value,[24],61 OD
same,OD value,[25],49 OD
same,OD value,[26],72 OD
same,OD value,[27],91 OD
same,OD value,[28],79 OD
same,OD value,[29],86 OD
same,OD value,[30],71 OD
same,OD value,[31],118 OD
same,OD value,[32],77 OD
same,OD value,[33],76 OD
same,OD value,[34],68 OD
same,OD value,[35],96 OD
same,OD value,[36],93 OD
same,OD value,[37],85 OD
same,OD value,[38],69 OD
same,OD value,[39],71 OD
same,OD value,[40],62 OD
same,OD value,[41],80 OD
same,OD value,[42],60 OD
same,OD value,[43],58 OD
same,OD value,[44],60 OD
same,OD value,[45],68 OD
same,OD value,[46],80 OD
same,OD value,[47],88 OD
same,OD value,[48],90 OD
same,OD value,[49],99 OD
same,OD value,[50],98 OD
same,OD value,[51],82 OD
same,OD value,[52],85 OD
same,OD value,[53],138 OD
same,OD value,[54],73 OD
same,OD value,[55],111 OD
same,OD value,[56],83 OD
same,OD value,[57],99 OD
same,OD value,[58],78 OD
same,OD value,[59],99 OD
same,OD value,[60],72 OD
same,OD value,[61],84 OD
same,OD value,[62],79 OD
same,OD value,[63],72 OD
same,OD value,[64],71 OD
same,OD value,[65],60 OD
same,OD value,[66],88 OD
same,OD value,[67],51 OD
same,OD value,[68],112 OD
same,OD value,[69],90 OD
same,OD value,[70],76 OD
same,OD value,[71],77 OD
same,OD value,[72],93 OD
same,OD value,[73],68 OD
same,OD value,[74],101 OD
same,OD value,[75],90 OD
